Results reported in PMC7954794, “Protein context shapes the specificity of SH3 domain-mediated interactions in vivo” (Nature Communications, 2021).

Tested on: Sla1 PPIs
Assay: DHFR-PCA of Sla1 SH3-swapped, -shuffled or -deleted baits (Fig. 2E, 4B, 4D, S5A)
Assay type: cell-based, Saccharomyces cerevisiae
Excerpt: The stuffing of YSC84 SH3 rendered the strain sterile and was therefore not used for this study as the assays require crosses. For genes containing two SH3s (BZZ1 and BEM1), a combination of this first stuffer with a second one ([…]) coding for a highly similar linker ([…]) was used, which allowed targeting each SH3 position independently. The two N-terminal domains of SLA1, which are separated by six nucleotides, were stuffed by a single stuffer. Cells containing pCAS were selected via the G418 resistance cassette from the plasmid on YPD plates (YPD + NAT 100 μg/ml (DHFR F[1,2] selection) + G418 200 µg/mL (Bioshop Canada)). Colonies were randomly selected and grown in YPD media without G418 to allow plasmid loss. The correct insertion of the stuffer was validated by PCR and Sanger sequencing. The SH3-swapped, -shuffled, and -mutated strains were constructed following a second CRISPR–Cas9 editing step with the same procedures. The stuffer sequences were targeted by specific gRNAs (one gRNA per stuffer) and replaced by PCR amplified specific SH3 (with 40 bp homology arms) or libraries of mutated SH3 domains for Deep Mutational Scanning (DMS) with 78 bp flanking homology regions. Validation of the SH3 domain insertions was done as we previously described except for DMS libraries (see below).
The overall DHFR-PCA pipeline is based on Tarassov et al.[43] and the procedures have also been published as a visualized protocol. The screens were performed with robotically manipulated pin tools (BM5-SC1, S&P Robotics Inc.). First, the preys were cherry-picked from 96-well plates to omnitrays in a 384 format on YPD + HPH solid media. Plates were then combined into the 1536 format on YPD + HPH. The array was constituted of 575 preys previously shown to interact physically with at least one SH3-containing protein as reported in BioGRID V3.4.16 along with 40 negative controls. The prey array comprised a border of control strains of two rows and two columns corresponding to the PPI between LSM8-DHFR F[1,2] and CDC39-DHFR F[3]. This double border was used to remove border effects. Preys are present in duplicate at a randomized position in the 1536 array (except for YAL041W which is present four times per array). Baits were crossed with two prey plates, resulting in four independent bait–prey tests for each PPI. Baits were grown in liquid YPD + NAT and then transferred on solid YPD + NAT omnitrays. They were then replicated on YPD + NAT omnitrays in 1536 array format. Mating of DHFR F[1,2] baits with DHFR F[3] preys was done on YPD followed by incubation at 30 °C for 48 h. Two diploid selection steps were performed by replicating the plates on YPD + NAT + HPH and incubating them for 48 h at 30 °C. Pictures were taken at the end of the second diploid selection for quality control. All images were acquired with a EOS Rebel T5i camera (Canon). Finally, the diploid cells were replicated on omnitrays containing solid PCA selection media and incubated for 4 days as a first selection step in a spImager custom robotic platform (S&P Robotics Inc.). Cells were replicated for a second PCA selection step and incubated in the same manner. The last time point of the second PCA selection step was used for the data analysis as in previous studies using this method.
A separate DHFR-PCA screen was performed for the Sla1 SH3 shuffling experiment, with the same analysis as previously described. Three plates had no detectable level of background, which correspond to the second plate of the three Sla1 SH3 WT re-insertion controls. They were attributed the average of the background of the three first plates of the same baits. The threshold was also determined based on the distribution of the PCA scores of all PPIs and corresponds to the top 2.75% of all colonies detected in this experiment. […] Almost all true PPIs are from four replicates (96.2%). […]

B1: WT¦WT¦WT (protein, UniProt P32790 1-1244, looked up)
Actin cytoskeleton-regulatory …: MTVFLGIYRAVYAYEPQTPEELAIQEDDLLYLLQKSDIDDWWTVKKRVIGSDSEEPVGLVPSTYIEEAPVLKKVRAIYDYEQVQNADEELTFHENDVFDVFDDKDADWLLVKSTVSNEFGFIPGNYVEPENGSTSKQEQAPAAAEAPAATPAAAPASAAVLPTNFLPPPQHNDRARMMQSKEDQAPDEDEEGPPPAMPARPTATTETTDATAAAVRSRTRLSYSDNDNDDEEDDYYYNSNSNNVGNHEYNTEYHSWNVTEIEGRKKKKAKLSIGNNKINFIPQKGTPHEWSIDKLVSYDNEKKHMFLEFVDPYRSLELHTGNTTTCEEIMNIIGEYKGASRDPGLREVEMASKSKKRGIVQYDFMAESQDELTIKSGDKVYILDDKKSKDWWMCQLVDSGKSGLVPAQFIEPVRDKKHTESTASGIIKSIKKNFTKSPSRSRSRSRSKSNANASWKDDELQNDVVGSAAGKRSRKSSLSSHKKNSSATKDFPNPKKSRLWVDRSGTFKVDAEFIGCAKGKIHLHKANGVKIAVAADKLSNEDLAYVEKITGFSLEKFKANDGSSSRGTDSRDSERERRRRLKEQEEKERDRRLKERELYELKKARELLDEERSRLQEKELPPIKPPRPTSTTSVPNTTSVPPAESSNNNNSSNKYDWFEFFLNCGVDVSNCQRYTINFDREQLTEDMMPDINNSMLRTLGLREGDIVRVMKHLDKKFGRENIASIPTNATGNMFSQPDGSLNVATSPETSLPQQLLPQTTSPAQTAPSTSAETDDAWTVKPASKSESNLLSKKSEFTGSMQDLLDLQPLEPKKAAASTPEPNLKDLEPVKTGGTTVPAAPVSSAPVSSAPAPLDPFKTGGNNILPLSTGFVMMPMITGGDMLPMQRTGGFVVPQTTFGMQSQVTGGILPVQKTGNGLIPISNTGGAMMPQTTFGAAATVLPLQKTGGGLIPIATTGGAQFPQTSFNVQGQQQLPTGSILPVQKTANGLISANTGVSMPTVQRTGGTMIPQTSFGVSQQLTGGAMMTQPQNTGSAMMPQTSFNAVPQITGGAMMPQTSFNALPQVTGGAMMPLQRTGGALNTFNTGGAMIPQTSFSSQAQNTGGFRPQSQFGLTLQKTGGIAPLNQNQFTGGAMNTLSTGGVLQQQQPQTMNTFNTGGVMQELQMMTTFNTGGAMQQPQMMNTFNTDGIMQQPQMMNTFNTGGAMQQPQQQALQNQPTGFGFGNGPQQSRQANIFNATASNPFGF
Protein-protein interaction distance between Sla1 baits (distance to bait ABP1¦WT¦WT): 8.25 | Protein-protein interaction distance between Sla1 baits (distance to bait ABP1¦WT¦WT, listed as WT¦WT¦WT*): 10.6959 | Protein-protein interaction distance between Sla1 baits (distance to bait D¦D¦D): 16.1793 | Protein-protein interaction distance between Sla1 baits (distance to bait D¦D¦D, listed as WT¦WT¦WT*): 19.5303 | Protein-protein interaction distance between Sla1 baits (distance to bait D¦D¦SH3-1): 16.1305 | Protein-protein interaction distance between Sla1 baits (distance to bait D¦D¦SH3-1, listed as WT¦WT¦WT*): 19.4574 | Protein-protein interaction distance between Sla1 baits (distance to bait D¦D¦WT): 16.2907 | Protein-protein interaction distance between Sla1 baits (distance to bait D¦D¦WT, listed as WT¦WT¦WT*): 19.6881 | Protein-protein interaction distance between Sla1 baits (distance to bait D¦WT¦D): 11.2982 | Protein-protein interaction distance between Sla1 baits (distance to bait D¦WT¦D, listed as WT¦WT¦WT*): 13.9439 | Protein-protein interaction distance between Sla1 baits (distance to bait D¦WT¦SH3-1): 14.8539 | Protein-protein interaction distance between Sla1 baits (distance to bait D¦WT¦SH3-1, listed as WT¦WT¦WT*): 18.0045 | Protein-protein interaction distance between Sla1 baits (distance to bait D¦WT¦SH3-2): 16.1112 | Protein-protein interaction distance between Sla1 baits (distance to bait D¦WT¦SH3-2, listed as WT¦WT¦WT*): 19.4593 | Protein-protein interaction distance between Sla1 baits (distance to bait D¦WT¦WT): 11.2206 | Protein-protein interaction distance between Sla1 baits (distance to bait D¦WT¦WT, listed as WT¦WT¦WT*): 13.8561 | Protein-protein interaction distance between Sla1 baits (distance to bait SH3-2¦SH3-1¦WT): 14.7068 | Protein-protein interaction distance between Sla1 baits (distance to bait SH3-2¦SH3-1¦WT, listed as WT¦WT¦WT*): 17.8199 | Protein-protein interaction distance between Sla1 baits (distance to bait SH3-2¦WT¦D): 16.5686 | Protein-protein interaction distance between Sla1 baits (distance to bait SH3-2¦WT¦D, listed as WT¦WT¦WT*): 19.9645 | Protein-protein interaction distance between Sla1 baits (distance to bait SH3-2¦WT¦WT): 10.6088 | Protein-protein interaction distance between Sla1 baits (distance to bait SH3-2¦WT¦WT, listed as WT¦WT¦WT*): 13.1093 | Protein-protein interaction distance between Sla1 baits (distance to bait SH3-3¦SH3-1¦D): 6.071 | Protein-protein interaction distance between Sla1 baits (distance to bait SH3-3¦SH3-1¦D, listed as WT¦WT¦WT*): 7.132 | Protein-protein interaction distance between Sla1 baits (distance to bait SH3-3¦SH3-1¦SH3-2): 11.1253 | Protein-protein interaction distance between Sla1 baits (distance to bait SH3-3¦SH3-1¦SH3-2, listed as WT¦WT¦WT*): 13.2567 | Protein-protein interaction distance between Sla1 baits (distance to bait SH3-3¦WT¦D): 6.23 | Protein-protein interaction distance between Sla1 baits (distance to bait SH3-3¦WT¦D, listed as WT¦WT¦WT*): 7.588 | Protein-protein interaction distance between Sla1 baits (distance to bait SH3-3¦WT¦SH3-1): 7.451 | Protein-protein interaction distance between Sla1 baits (distance to bait SH3-3¦WT¦SH3-1, listed as WT¦WT¦WT*): 7.53 | Protein-protein interaction distance between Sla1 baits (distance to bait SH3-3¦WT¦WT): 5.911 | Protein-protein interaction distance between Sla1 baits (distance to bait SH3-3¦WT¦WT, listed as WT¦WT¦WT*): 7.517 | Protein-protein interaction distance between Sla1 baits (distance to bait WT*¦WT¦WT): 6.431 | Protein-protein interaction distance between Sla1 baits (distance to bait WT*¦WT¦WT, listed as WT¦WT¦WT*): 3.21 | Protein-protein interaction distance between Sla1 baits (distance to bait WT¦ABP1¦WT): 7.491 | Protein-protein interaction distance between Sla1 baits (distance to bait WT¦ABP1¦WT, listed as WT¦WT¦WT*): 10.0527 | Protein-protein interaction distance between Sla1 baits (distance to bait WT¦D¦D): 10.9978 | Protein-protein interaction distance between Sla1 baits (distance to bait WT¦D¦D, listed as WT¦WT¦WT*): 13.667 | Protein-protein interaction distance between Sla1 baits (distance to bait WT¦D¦SH3-2): 12.0771 | Protein-protein interaction distance between Sla1 baits (distance to bait WT¦D¦SH3-2, listed as WT¦WT¦WT*): 14.877 | Protein-protein interaction distance between Sla1 baits (distance to bait WT¦D¦WT): 11.0221 | Protein-protein interaction distance between Sla1 baits (distance to bait WT¦D¦WT, listed as WT¦WT¦WT*): 13.7143 | Protein-protein interaction distance between Sla1 baits (distance to bait WT¦SH3-1¦D): 6.357 | Protein-protein interaction distance between Sla1 baits (distance to bait WT¦SH3-1¦D, listed as WT¦WT¦WT*): 7.675 | Protein-protein interaction distance between Sla1 baits (distance to bait WT¦SH3-1¦WT): 5.709 | Protein-protein interaction distance between Sla1 baits (distance to bait WT¦SH3-1¦WT, listed as WT¦WT¦WT*): 7.171 | Protein-protein interaction distance between Sla1 baits (distance to bait WT¦SH3-3¦D): 9.961 | Protein-protein interaction distance between Sla1 baits (distance to bait WT¦SH3-3¦D, listed as WT¦WT¦WT*): 12.4074 | Protein-protein interaction distance between Sla1 baits (distance to bait WT¦SH3-3¦SH3-2): 12.7354 | Protein-protein interaction distance between Sla1 baits (distance to bait WT¦SH3-3¦SH3-2, listed as WT¦WT¦WT*): 15.4687 | Protein-protein interaction distance between Sla1 baits (distance to bait WT¦SH3-3¦WT): 10.0693 | Protein-protein interaction distance between Sla1 baits (distance to bait WT¦SH3-3¦WT, listed as WT¦WT¦WT*): 12.5958 | Protein-protein interaction distance between Sla1 baits (distance to bait WT¦WT*¦WT): 6.129 | Protein-protein interaction distance between Sla1 baits (distance to bait WT¦WT*¦WT, listed as WT¦WT¦WT*): 3.181 | Protein-protein interaction distance between Sla1 baits (distance to bait WT¦WT¦ABP1): 9 | Protein-protein interaction distance between Sla1 baits (distance to bait WT¦WT¦ABP1, listed as WT¦WT¦WT*): 10.6328 | Protein-protein interaction distance between Sla1 baits (distance to bait WT¦WT¦D): 5.067 | Protein-protein interaction distance between Sla1 baits (distance to bait WT¦WT¦D, listed as WT¦WT¦WT*): 7.2651 | Protein-protein interaction distance between Sla1 baits (distance to bait WT¦WT¦SH3-1): 4.945 | Protein-protein interaction distance between Sla1 baits (distance to bait WT¦WT¦SH3-1, listed as WT¦WT¦WT*): 5.794 | Protein-protein interaction distance between Sla1 baits (distance to bait WT¦WT¦SH3-2): 5.746 | Protein-protein interaction distance between Sla1 baits (distance to bait WT¦WT¦SH3-2, listed as WT¦WT¦WT*): 6.816 | Protein-protein interaction distance between Sla1 baits (distance to bait WT¦WT¦WT): 0 | Protein-protein interaction distance between Sla1 baits (distance to bait WT¦WT¦WT*): 6.956 | Protein-protein interaction distance between Sla1 baits (distance to bait WT¦WT¦WT*, listed as WT¦WT¦WT*): 0 | Protein-protein interaction distance between Sla1 baits (distance to bait WT¦WT¦WT, listed as WT¦WT¦WT*): 6.956
